Data set [1] has as its target T1, CCL5-F12A (human), P13501.
T1 chain: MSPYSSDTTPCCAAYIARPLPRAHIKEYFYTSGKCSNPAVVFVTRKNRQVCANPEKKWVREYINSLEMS
The experiment in a line: NMR titration; pH titration followed by 1H,15N-HSQC; this point pH 3.2; 0.2 mM 15N-labelled protein, 25 mM sodium acetate, 150 mM NaCl, 10% D2O, 298 K; monomer to dimer. The note with it: remark: other sources report otherwise.

Data set [2] concerns the molecule itself. The description is as above.
Data set [3] concerns the molecule itself. The experiment in a line: NMR backbone relaxation (15N-R1, 15N-R2, 1H-15N NOE); pH 3.2, 298 K, 600 MHz, in the absence or presence of 180 mM ammonium sulfate; oligomeric state from R1, R2 and the R2/R1 ratio; monomer to dimer.
Data set [4] deals with the molecule itself. The experiment in a line: NMR titration; pH titration followed by 1H,15N-HSQC; this point pH 5.0 (for the wild type maintained until pH 6.0); 0.2 mM 15N-labelled protein, 25 mM sodium acetate, 150 mM NaCl, 10% D2O, 298 K; dimers to soluble oligomers, read from the loss of resonance intensity.

This is an account of results in PMC7084690, “N-terminal Backbone Pairing Shifts in CCL5-^12AAA^14 Dimer Interface: Structural Significance of the FAY Sequence” (International Journal of Molecular Sciences, 2020).

B1: CCL5-F12A, P13501 24-91 (natural protein)
chain: MSPYSSDTTPCCAAYIARPLPRAHIKEYFYTSGKCSNPAVVFVTRKNRQVCANPEKKWVREYINSLEMS
A word on the stoichiometry N: it is a count of units in the complex or per binding partner. Take B1: in data set [1], the stoichiometry N worked out at 2.

B2: human CC-type chemokine ligand 5 (CCL5) (natural protein)
chain: MSPYSSDTTPCCFAYIARPLPRAHIKEYFYTSGKCSNPAVVFVTRKNRQVCANPEKKWVREYINSLEMS
notes: starting Met residue (M0) that precedes residues 1-68 of the mature CCL5; CCL5 (RANTES), human, residues 1-68 of the mature CCL5; numbers count on: the mature protein; 15N-labelled for the NMR experiments; vector pET43.1a(+); also called RANTES; native CCL5
Take B2: the “stoichiometry N” value in data set [2] worked out at 2.

B3: CCL5-12AAA14 (natural protein, human)
chain: MSPYSSDTTPCCAAAIARPLPRAHIKEYFYTSGKCSNPAVVFVTRKNRQVCANPEKKWVREYINSLEMS
notes: starting Met residue (M0) that precedes residues 1-68 of the mature CCL5; numbers count on: the mature protein; 15N- or 15N,13C-labelled for the NMR experiments; In the crystal the first five N-terminal residues were not modelled; also called 12AAA14 mutant
Take B3: the “stoichiometry N” value in data set [3] was 2.

B4: CCL5-Y14A (natural protein, human)
chain: MSPYSSDTTPCCFAAIARPLPRAHIKEYFYTSGKCSNPAVVFVTRKNRQVCANPEKKWVREYINSLEMS
notes: starting Met residue (M0) that precedes residues 1-68 of the mature CCL5; CCL5 (RANTES), human, residues 1-68 of the mature CCL5, with Y14A; numbers count on: the mature protein; 15N-labelled for the NMR experiments
As for B4, the binding result in data set [4] is listed as “binds”.
